# Experimental data taken from patent US20180066058A1 (published 2018).
# Residue numbers refer to the chain shown, from its start.
# B1: STIM002 human IgG1 (antibody, V domains shown)
# VH: QVQLVQSGGEVKKPGASVKVSCKASGYTFTSYGFSWVRQAPGQGLEWMGWISAYNGNTNYAQKLQGRVTMTTDTSTSTAYMELRSLRSDDTAVYYCARSTYFYGSGTLYGMDVWGQGTTVTVSS
# VL: DIVMTQSPLSLPVTPGEPASISCRSSQSLLHSDGYNYLDWYLQKPGQSPQLLIYLGSTRASGFPDRFSGSGSGTDFTLKISRVEAEDVGVYYCMQALQTPLSFGQGTKLEIKR
# notes: Human IgG1 format
# B2: STIM002-B human IgG1 (antibody, V domains shown)
# VH: B1 VH
# VL: B1 VL with Y37C, L101C
# notes: Human IgG1 format
# B3: STIM004 human IgG1 (antibody, V domains shown)
# VH: EVQLVESGGGVVRPGGSLRLSCAASGLTFDDYGMSWVRQVPGKGLEWVSGINWNGDNTDYADSVKGRFTISRDNAKNSLYLQMNSLRAEDTALYYCARDYYGSGSYYNVPFDYWGQGTLVTVSS
# VL: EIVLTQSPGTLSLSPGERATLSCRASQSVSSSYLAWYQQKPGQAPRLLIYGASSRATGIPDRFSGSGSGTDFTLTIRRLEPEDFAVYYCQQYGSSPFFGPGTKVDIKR
# notes: Human IgG1 format
# B4: STIM005 human IgG1 (antibody, V domains shown)
# VH: QVQLVQSGAEVKKPGASVKVSCKASGYTFNSYGIIWVRQAPGQGLEWMGWISVHNGNTNCAQKLQGRVTMTTDTSTSTAYMELRSLRTDDTAVYYCARAGYDILTDFSDAFDIWGHGTMVTVSS
# VL: DIQMTQSPSSLSASVGDRVTITCRASQNINNFLNWYQQKEGKGPKLLIYAASSLQRGIPSTFSGSGSGTDFTLTISSLQPEDFATYICQQSYGIPWVGQGTKVEIKR
# notes: Human IgG1 format
# B5: STIM006 human IgG1 (antibody, V domains shown)
# VH: QVQLVESGGGLVKPGGSLRLSCAASGFTFSDYFMSWIRQAPGKGLEWISYISSSGSTIYYADSVRGRFTISRDNAKYSLYLQMNSLRSEDTAVYYCARDHYDGSGIYPLYYYYGLDVWGQGTTVTVSS
# VL: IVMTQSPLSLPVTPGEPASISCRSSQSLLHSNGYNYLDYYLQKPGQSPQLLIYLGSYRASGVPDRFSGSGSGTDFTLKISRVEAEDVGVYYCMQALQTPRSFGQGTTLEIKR
# notes: Human IgG1 format
# B6: STIM009 human IgG1 (antibody, V domains shown)
# VH: QVQLVESGGGLVKPGGSLRLSCAASGFTFSDYYMSWIRQAPGKGLEWVSYISSSGSTIYYADSVKGRFTISRDNAKNSLYLQINSLRAEDTAVYYCARDFYDILTDSPYFYYGVDVWGQGTTVTVSS
# VL: not shown
# notes: Human IgG1 format
# B7: STIM001 human IgG4.PE (antibody, V domains shown)
# VH: QVQVVQSGAEVKKPGASVKVSCKASGYTFSTFGITWVRQAPGQGLEWMGWISAYNGDTNYAQNLQGRVIMTTDTSTSTAYMELRSLRSDDTAVYYCARSSGHYYYYGMDVWGQGTTVTVSS
# VL: DIVMTQSPLSLPVTPGEPASISCRSSQSLLHSNEYNYLDWYLQKPGQSPQLLIFLGSNRASGVPDRFSGSGSGTDFTLKITRVEAEDVGIYYCMQSLQTPLTFGGGTKVEIK
# notes: Human IgG4.PE (null-effector) format
# B8: STIM002-B human IgG4.PE (antibody, V domains shown)
# VH: B1 VH
# VL: DIVMTQSPLSLPVTPGEPASISCRSSQSLLHSDGYNCLDWYLQKPGQSPQLLIYLGSTRASGFPDRFSGSGSGTDFTLKISRVEAEDVGVYYCMQALQTPCSFGQGTKLEIK
# notes: as for B7
# B9: STIM003 human IgG4.PE (antibody, V domains shown)
# VH: B3 VH with A23V, L27V, V40A, D56G, N57D, A61S, Y100F, N108H, T118I
# VL: EIVLTQSPGTLSLSPGERATLSCRASQSVSRSYLAWYQQKRGQAPRLLIYGASSRATGIPDRFSGDGSGTDFTLSISRLEPEDFAVYYCHQYDMSPFTFGPGTKVDIK
# notes: as for B7
# B10: STIM009 human IgG4.PE (antibody, V domains shown)
# VH: B6 VH
# VL: not shown
# notes: as for B7
# Molecular target: T1, human ICOS-mFc (Chimerigen) (human, UniProt Q9Y6W8 21-140)
# T1 construct: also called human ICOS receptor; human ICOS Receptor; not shown: mouse Fc of the bought construct
# T1 sequence: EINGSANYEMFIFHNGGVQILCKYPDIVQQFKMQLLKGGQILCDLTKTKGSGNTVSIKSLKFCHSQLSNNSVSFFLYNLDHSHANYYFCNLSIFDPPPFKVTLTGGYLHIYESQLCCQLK
# Assay: HTRF neutralisation of Alexa 647 human B7-H2 binding to human ICOS-mFc; human IgG1; mean, n = 4
# Description: (§1) 5 μl of ICOS receptor (human ICOS-mFc, 20 nM, 5 nM final or mouse ICOS-mFc 4 nM, 1 nM final (Chimerigen)) was added to required wells. Plate was incubated for 1 hr at room temperature (RT).
# (§2) Finally, 5 μl of anti-mouse IgG donor mAb (Southern Biotech) labelled with europium cryptate (Cis Bio), 40 nM, 10 nM final was added to each well and the assay was left in the dark at RT to incubate for a further 2 hours. After incubation, assay was read on Envision plate reader (Perkin Elmer) using a standard HTRF protocol. […] Titration curves and IC50 values [M] were plotted using Graphpad (Prism). IC50 values were calculated by first transforming the data using equation X=Log(X). The transformed data was then fitted using nonlinear regression, using fitting algorithm, log (inhibitor) vs. response—variable slope (four parameters).
row,Binder,IC50
1,B1,1.9 nM
2,B2,3.6 nM
3,B3,233 nM
4,B4,2.5 nM
5,B5,2.2 nM
6,B6,30.5 nM

# Molecular target: T2, mouse ICOS-mFc (Chimerigen) (mouse, UniProt Q9WVS0 21-141, limits assumed)
# T2 construct: also called mouse ICOS receptor; mouse ICOS Receptor; not shown: mouse Fc of the bought construct
# T2 sequence: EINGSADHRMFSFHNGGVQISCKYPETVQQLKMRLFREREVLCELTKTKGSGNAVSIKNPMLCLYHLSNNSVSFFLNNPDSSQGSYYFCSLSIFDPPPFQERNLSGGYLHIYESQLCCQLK
# Assay: HTRF neutralisation of Alexa 647 mouse B7-H2 binding to mouse ICOS-mFc; human IgG1; mean, n = 3
# Description: as §1, §2
row,Binder,IC50
1,B1,6.9 nM
2,B2,30 nM
3,B3,22.1 nM
4,B4,0.3 nM

# Molecular target: T1, human ICOS-mFc (Chimerigen)
# Assay: HTRF neutralisation of Alexa 647 human B7-H2 binding to human ICOS-mFc; human IgG4.PE; mean, n = 4
# Description: as §1, §2
row,Binder,IC50
1,B7,1.3 nM
2,B8,3.4 nM
3,B9,1.2 nM
4,B10,4.6 nM

# Molecular target: T2, mouse ICOS-mFc (Chimerigen)
# Assay: HTRF neutralisation of Alexa 647 mouse B7-H2 binding to mouse ICOS-mFc; human IgG4.PE; mean, n = 3
# Description: as §1, §2
row,Binder,IC50
1,B7,4.7 nM
2,B8,43.9 nM
3,B9,0.2 nM
